Square brackets hold non-standard residues; d marks the D form. Primed or numbered codes have the meaning given here. Ends that are not written are not given here. * marks the point of attachment. triazole = triazole formed by click reaction joining the C-terminal propargylamide to 5/6-carboxyfluorescein; Isoxazole3carbonyl(5-Me) = Cc1cc(C(=O)*)no1; Tyr(3-Cl) = N[C@@H](Cc1ccc(O)c(Cl)c1)C(=O)O; Lys(Me3) = C[N+](C)(C)CCCC[C@H](N)C(=O)O; Lys(Et2) = CCN(CC)CCCC[C@H](N)C(=O)O; triazole″ = not defined here; PEG4′ = not defined here; NH(propargyl) = C#CCN*
How the values were obtained:
[1] = biological target: T1, CBX6 chromodomain (CBX6 ChD), N-terminal His6-tagged recombinant protein (UniProt O95503 8-65, limits assumed); assay: direct fluorescence polarization, fluorescein-conjugated ligand
T1 construct: domain: chromodomain; not shown: N-terminal His6 tag
T1 sequence (looked up): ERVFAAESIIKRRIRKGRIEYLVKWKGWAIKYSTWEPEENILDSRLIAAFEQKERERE

[2] = biological target: T2, CBX8 chromodomain (CBX8 ChD), N-terminal His6-tagged recombinant protein (UniProt Q9HC52 8-61, limits assumed); assay: as above
T2 construct: domain: chromodomain; not shown: N-terminal His6 tag
T2 sequence (looked up): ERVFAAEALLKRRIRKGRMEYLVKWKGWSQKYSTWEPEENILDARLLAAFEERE

[3] = biological target: T2, CBX8 chromodomain (CBX8 ChD), …; assay: direct fluorescence polarization; reference CBX2 ChD; CBX8 is the closest paralog by Table 3
[4] = biological target: T3, CBX2 chromodomain (CBX2 ChD), N-terminal His6-tagged recombinant protein (UniProt Q14781 9-66, limits assumed); assay: Thermal Shift Assay of the non-derivatized ligand
T3 construct: domain: chromodomain; Expressed in E. coli and purified on Ni-NTA; not shown: N-terminal His6 tag
T3 sequence (looked up): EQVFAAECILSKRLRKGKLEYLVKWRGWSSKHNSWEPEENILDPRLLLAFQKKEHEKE

[5] = biological target: T2, CBX8 chromodomain (CBX8 ChD), …; assay: method not given
[6] = biological target: T4, CBX7 chromodomain (CBX7 ChD), N-terminal His6-tagged recombinant protein (UniProt O95931 8-62, limits assumed); assay: competitive fluorescence polarization (FP) assay, displacement of the FITC-labelled probe
T4 construct: domain: chromodomain; not shown: N-terminal His6 tag
T4 sequence (looked up): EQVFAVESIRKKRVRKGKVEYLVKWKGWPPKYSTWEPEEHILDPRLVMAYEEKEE

[7] = biological target: T1, CBX6 chromodomain (CBX6 ChD), …; assay: as above
[8] = biological target: T2, CBX8 chromodomain (CBX8 ChD), …; assay: as above
[9] = biological target: T5, CBX4 chromodomain (CBX4 ChD), N-terminal His6-tagged recombinant protein (UniProt O00257 8-65, limits assumed); assay: as above
T5 construct: domain: chromodomain; not shown: N-terminal His6 tag
T5 sequence (looked up): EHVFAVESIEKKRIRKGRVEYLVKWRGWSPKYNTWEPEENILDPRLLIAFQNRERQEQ

[10] = biological target: T3, CBX2 chromodomain (CBX2 ChD), …; assay: as above
[11] = biological target: T4, CBX7 chromodomain (CBX7 ChD), …; assay: direct fluorescence titration of KED97L-FL; reference CBX8 ChD
[12] = biological target: T4, CBX7 chromodomain (CBX7 ChD), …; assay: direct fluorescence polarization, FAM-labelled ligand at 100 nM, ChD titrated
[13] = biological target: T1, CBX6 chromodomain (CBX6 ChD), …; assay: as above
[14] = biological target: T2, CBX8 chromodomain (CBX8 ChD), …; assay: as above
[15] = biological target: T5, CBX4 chromodomain (CBX4 ChD), …; assay: as above
[16] = biological target: T3, CBX2 chromodomain (CBX2 ChD), …; assay: as above
[17] = biological target: T6, endogenous CBX6 (HEK293T nuclear lysate) (human, UniProt O95503 1-412); assay: chemoprecipitation from HEK293T nuclear lysate, immunoblot
T6 sequence (looked up): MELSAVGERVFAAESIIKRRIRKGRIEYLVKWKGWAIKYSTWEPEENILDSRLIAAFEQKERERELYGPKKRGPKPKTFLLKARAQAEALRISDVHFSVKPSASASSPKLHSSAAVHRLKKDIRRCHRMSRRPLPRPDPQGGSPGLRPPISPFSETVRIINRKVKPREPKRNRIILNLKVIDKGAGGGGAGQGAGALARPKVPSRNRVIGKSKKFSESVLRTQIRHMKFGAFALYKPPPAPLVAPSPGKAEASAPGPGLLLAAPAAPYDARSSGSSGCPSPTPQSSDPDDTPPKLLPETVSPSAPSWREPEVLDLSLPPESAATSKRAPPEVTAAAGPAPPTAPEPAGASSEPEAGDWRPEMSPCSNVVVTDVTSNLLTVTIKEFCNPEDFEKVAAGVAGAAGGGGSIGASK

[18] = biological target: T7, endogenous CBX7 (from cells / lysate) (human, UniProt O95931 1-251); assay: as above
T7 sequence (looked up): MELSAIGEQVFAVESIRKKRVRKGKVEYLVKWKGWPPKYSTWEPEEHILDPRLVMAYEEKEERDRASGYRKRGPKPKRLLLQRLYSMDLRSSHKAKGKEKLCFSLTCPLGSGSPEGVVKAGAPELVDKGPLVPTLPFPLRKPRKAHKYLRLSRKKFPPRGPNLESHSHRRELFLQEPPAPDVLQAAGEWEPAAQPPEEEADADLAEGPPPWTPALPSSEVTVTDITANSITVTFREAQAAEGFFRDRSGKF

[19] = biological target: T8, BRG1 (endogenous, HEK293T nuclear lysate) (human, UniProt P51532 1-1647); assay: as above
T8 construct: Non-specific control of the chemoprecipitation
T8 sequence (P51532 whole entry): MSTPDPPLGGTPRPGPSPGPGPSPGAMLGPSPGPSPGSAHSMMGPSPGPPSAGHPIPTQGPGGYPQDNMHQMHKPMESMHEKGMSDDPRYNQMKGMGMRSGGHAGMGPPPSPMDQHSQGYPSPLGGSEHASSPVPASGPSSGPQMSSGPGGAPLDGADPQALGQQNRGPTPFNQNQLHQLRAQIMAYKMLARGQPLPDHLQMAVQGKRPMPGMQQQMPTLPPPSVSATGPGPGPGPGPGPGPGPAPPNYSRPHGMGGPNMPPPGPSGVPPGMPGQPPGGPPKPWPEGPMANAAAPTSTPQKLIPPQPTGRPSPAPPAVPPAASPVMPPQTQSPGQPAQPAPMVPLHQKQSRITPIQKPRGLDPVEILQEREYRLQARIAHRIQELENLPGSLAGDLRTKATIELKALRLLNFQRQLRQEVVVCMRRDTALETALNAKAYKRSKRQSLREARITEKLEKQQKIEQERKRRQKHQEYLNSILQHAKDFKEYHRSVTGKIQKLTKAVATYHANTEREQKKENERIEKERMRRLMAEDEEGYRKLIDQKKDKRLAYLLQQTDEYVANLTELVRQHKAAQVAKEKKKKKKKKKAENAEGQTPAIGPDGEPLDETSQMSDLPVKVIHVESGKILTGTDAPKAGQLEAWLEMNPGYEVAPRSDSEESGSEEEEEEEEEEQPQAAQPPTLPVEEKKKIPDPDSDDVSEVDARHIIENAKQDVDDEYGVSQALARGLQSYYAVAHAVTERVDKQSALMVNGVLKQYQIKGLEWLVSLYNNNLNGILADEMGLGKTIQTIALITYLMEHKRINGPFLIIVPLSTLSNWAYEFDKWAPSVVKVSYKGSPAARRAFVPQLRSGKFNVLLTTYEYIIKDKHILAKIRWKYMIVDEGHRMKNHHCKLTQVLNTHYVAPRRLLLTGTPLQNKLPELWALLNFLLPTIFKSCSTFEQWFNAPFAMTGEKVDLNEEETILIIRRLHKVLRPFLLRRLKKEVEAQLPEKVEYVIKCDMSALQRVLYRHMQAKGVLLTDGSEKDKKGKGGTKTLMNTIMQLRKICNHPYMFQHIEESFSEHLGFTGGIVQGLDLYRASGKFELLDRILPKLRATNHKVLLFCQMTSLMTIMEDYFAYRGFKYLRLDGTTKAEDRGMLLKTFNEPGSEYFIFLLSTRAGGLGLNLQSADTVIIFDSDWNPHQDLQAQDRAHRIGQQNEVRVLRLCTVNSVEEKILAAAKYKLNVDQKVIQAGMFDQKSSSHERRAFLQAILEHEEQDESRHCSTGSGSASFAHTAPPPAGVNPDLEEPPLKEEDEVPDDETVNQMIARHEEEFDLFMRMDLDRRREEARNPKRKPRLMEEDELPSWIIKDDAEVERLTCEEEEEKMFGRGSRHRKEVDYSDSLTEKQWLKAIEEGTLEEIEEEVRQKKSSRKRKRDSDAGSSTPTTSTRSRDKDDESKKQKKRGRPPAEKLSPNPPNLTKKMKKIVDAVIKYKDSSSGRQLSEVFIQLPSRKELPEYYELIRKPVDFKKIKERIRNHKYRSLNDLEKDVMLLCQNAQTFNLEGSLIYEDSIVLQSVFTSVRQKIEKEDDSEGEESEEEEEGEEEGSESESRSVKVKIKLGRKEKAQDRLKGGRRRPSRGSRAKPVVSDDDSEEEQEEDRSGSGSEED

[20] = biological target: T9, endogenous CBX4 (HEK293T nuclear lysate) (human, UniProt O00257 1-560, limits assumed); assay: as above
T9 construct: Meant by 'any other paralogs' in the pulldown text
T9 sequence (looked up): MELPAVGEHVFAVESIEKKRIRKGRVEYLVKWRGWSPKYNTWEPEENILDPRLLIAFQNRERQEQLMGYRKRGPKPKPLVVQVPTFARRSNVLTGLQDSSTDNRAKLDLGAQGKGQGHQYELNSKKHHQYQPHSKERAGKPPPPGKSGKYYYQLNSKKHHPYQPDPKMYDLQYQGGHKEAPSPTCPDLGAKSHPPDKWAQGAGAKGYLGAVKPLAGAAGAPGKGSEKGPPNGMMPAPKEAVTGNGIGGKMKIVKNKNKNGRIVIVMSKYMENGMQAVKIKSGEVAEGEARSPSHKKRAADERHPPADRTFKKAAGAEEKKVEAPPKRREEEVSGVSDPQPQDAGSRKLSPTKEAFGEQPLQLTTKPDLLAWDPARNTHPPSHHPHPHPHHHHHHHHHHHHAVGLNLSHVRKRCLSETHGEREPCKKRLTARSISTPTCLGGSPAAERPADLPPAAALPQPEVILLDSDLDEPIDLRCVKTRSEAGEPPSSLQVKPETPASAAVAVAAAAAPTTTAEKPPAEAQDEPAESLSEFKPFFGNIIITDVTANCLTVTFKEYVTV

[21] = biological target: CBX7 chromodomain (CBX7 ChD), N-terminal His6-tagged recombinant protein (UniProt O95931); assay: competitive fluorescence polarization, displacement of FITC-labelled probe
[22] = biological target: CBX8 chromodomain (CBX8 ChD), N-terminal His6-tagged recombinant protein (UniProt Q9HC52); assay: as above
[23] = biological target: CBX6 chromodomain (CBX6 ChD), N-terminal His6-tagged recombinant protein (UniProt O95503); assay: as above
[24] = biological target: CBX2 chromodomain (CBX2 ChD), N-terminal His6-tagged recombinant protein (UniProt Q14781); assay: competitive fluorescence polarization (FP) assay, displacement of the FITC-labelled probe
[25] = biological target: CBX4 chromodomain (CBX4 ChD), N-terminal His6-tagged recombinant protein (UniProt O00257); assay: as above

B1: SW2_152F-FL (library#77) (peptide)
peptide: PI[Lys(Et2)]S
modifications: not fully specified (C-terminus); also: Pro1 alpha-amino modified, group not given here (non-natural monomer)
notes: also called fluorescein-conjugated SW2_152F
In the case of B1, the Kd [1] is reported as 9 µM, the Kd [2] is reported as 1900 nM and the “selectivity for CBX2 over the other paralogs (fold)” value [3] is reported as at least 24 fold.

B2: SW2_152F (peptide)
peptide: PI[Lys(Et2)]S-{NH(propargyl)}
modifications: also: Pro1 alpha-amino modified, group not given here, non-natural monomers
notes: Non-derivatized ligand, used in the Thermal Shift Assay and in cells; also called CBX2i
B2 was tested, and the Kd [4] was 110 nM.

{Isoxazole3carbonyl(5-Me)}-[Tyr(3-Cl)]VI[Lys(Et2)]S-{NH(propargyl)-triazole″-PEG2‑chloroalkane} (reading uncertain) [KED97L-CA (chloroalkane-modified KED97L)] gave a Kd [5] of 400 nM.

B3: KED97 (peptide)
peptide: {Isoxazole3carbonyl(5-Me)}-[Tyr(3-Cl)]VI[Lys(Me3)]S-NH2
notes: Final PSL1 ligand with combined synthons
B3 gave an IC50 [6] of 60 µM, an IC50 [7] of 4.4 µM and an IC50 [8] of 9.5 µM. It also gave an IC50 [9] of 49 µM and an IC50 [10] of 21 µM.

B4: KED97L-FL (peptide)
peptide: {Isoxazole3carbonyl(5-Me)}-[Tyr(3-Cl)]VI[Lys(Et2)]S-{NH(propargyl)-triazole-5/6‑FAM}
notes: also called 97L fluorescein derivative; KED97L (as measured)
In the case of B4, the “selectivity for CBX8 ChD over CBX7 ChD (fold)” value [11] is reported as 20 fold, the Kd [12] is reported as 4.7 µM and the Kd [13] is reported as 260 nM. For the same binder, the Kd [14] was 240 nM, the Kd [15] was 2700 nM and the Kd [16] was 1100 nM.

PI[Lys(Et2)]S-{PEG4′-biotin} (also: Pro1 alpha-amino modified, group not given here, non-natural monomers) [SW2_152F-B (biotinylated SW2_152F)]: no binding [17]; no binding [18]; no binding [19]. PI[Lys(Et2)]S-{PEG4′-biotin} (also: Pro1 alpha-amino modified, group not given here, non-natural monomers) [SW2_152F-B (biotinylated SW2_152F)]: binds [20].

In the case of [Tyr(3-Cl)]PIK(trimethyl)S-NH2 (also: N-terminal acylation, acyl group not given here) [KED98 (PP)], the IC50 [21] is reported as 83 µM, the IC50 [22] is reported as 14 µM and the IC50 [23] is reported as 34 µM. The IC50 [24] was 46 µM and the IC50 [25] was 173 µM.

From patent US20210284691A1, “CBX8 CHROMDOMAIN INHIBITORS AND THE USES THEREOF” (Purdue Research Foundation, priority 2019, published 2021)
